Test results from patent publication US20050095257A1.

Target: murine CCR6 expressed on HEK293 cells (HEK293/CCR6) (murine) (UniProt O54689)
Assay: cell-based or functional assay

| chemotaxis of murine bone marrow derived immature DC, peak activity | Substance |
| --- | --- |
| 10 ng/mL | mDF2βsFv38, murine β-defensin 2 fusion with sFv38 (from UniProt P82020 21-71) |
| 100 ng/mL | mDF3βsFv38, murine β-defensin 3 fusion with sFv38 (from UniProt Q9WTL0 23-63) |
